Where a chain is given by its changes, count along the chain named. One block for each molecule: values may come before it.
Experiments:
human C4b (human) [1] = molecular target: T1, human C4b (human) (UniProt P0C0L4)
T1 sequence: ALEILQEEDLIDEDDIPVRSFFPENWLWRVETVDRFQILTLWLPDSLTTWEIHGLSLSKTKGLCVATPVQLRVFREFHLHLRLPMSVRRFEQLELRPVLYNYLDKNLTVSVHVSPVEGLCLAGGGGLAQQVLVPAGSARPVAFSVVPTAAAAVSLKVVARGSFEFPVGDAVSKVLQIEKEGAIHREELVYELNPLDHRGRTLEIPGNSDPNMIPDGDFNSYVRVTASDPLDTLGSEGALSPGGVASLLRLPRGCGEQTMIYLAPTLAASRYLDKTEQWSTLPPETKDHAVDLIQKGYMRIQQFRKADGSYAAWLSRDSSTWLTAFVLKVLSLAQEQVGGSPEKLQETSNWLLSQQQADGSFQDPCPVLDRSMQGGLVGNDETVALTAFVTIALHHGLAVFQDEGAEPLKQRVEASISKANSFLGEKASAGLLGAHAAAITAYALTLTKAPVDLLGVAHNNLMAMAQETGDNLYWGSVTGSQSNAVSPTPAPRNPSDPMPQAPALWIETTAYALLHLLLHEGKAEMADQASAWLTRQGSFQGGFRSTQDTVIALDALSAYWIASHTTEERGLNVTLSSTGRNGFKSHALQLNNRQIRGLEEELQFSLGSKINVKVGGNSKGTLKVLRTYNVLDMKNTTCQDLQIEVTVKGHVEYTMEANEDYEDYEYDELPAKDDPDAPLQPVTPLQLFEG

[2] = molecular target: soluble human C3b (human) (UniProt P01024)
human C4b (human) [3] = molecular target: T2, human C4b (human) (UniProt P0C0L5)
T2 sequence: T1 sequence with A151T, D317G, P364L, C365S, L368I, D369H, N420S, V451A, L454R, S530A

[4] = molecular target: soluble human C3b (human) (UniProt P01024); remark: listed apart in the source

Molecule: CFI-HSA variant N476Q (enzyme)
C4c EC50 (nM) (human C4b (human) [1]): > 1000 nM | iC3b EC50 [2]: 15.7 nM | C4b Screen Ref Fold (fold vs CFI-HSA wild type) (human C4b (human) [3]): 0.85 | iC3b Screen Ref Fold (fold vs CFI-HSA wild type) [4]: 1.03

Molecule: CFI-HSA variant N422K (enzyme)
C4c EC50 (nM) (human C4b (human) [1]): 359 nM | iC3b EC50 [2]: 10.9 nM | C4b Screen Ref Fold (fold vs CFI-HSA wild type) (human C4b (human) [3]): 2.13 | iC3b Screen Ref Fold (fold vs CFI-HSA wild type) [4]: 1.36

Molecule: CFI-HSA variant K504A (enzyme)
C4c EC50 (nM) (human C4b (human) [1]): > 1000 nM | iC3b EC50 [2]: 51.9 nM | C4b Screen Ref Fold (fold vs CFI-HSA wild type) (human C4b (human) [3]): 0.23 | iC3b Screen Ref Fold (fold vs CFI-HSA wild type) [4]: 0.41

Molecule: CFI-HSA variant F559L; Y563H (enzyme)
C4c EC50 (human C4b (human) [1]): 130 nM | iC3b EC50 [2]: 39.6 nM | C4b Screen Ref Fold (fold of CFI-HSA wild type) (human C4b (human) [3]): 1.03 | iC3b Screen Ref Fold (fold of CFI-HSA wild type) [4]: 0.71

Molecule: CFI-HSA variant E530Y (enzyme)
C4c EC50 (nM) (human C4b (human) [1]): 381 nM | iC3b EC50 [2]: 16.1 nM | C4b Screen Ref Fold (fold vs CFI-HSA wild type) (human C4b (human) [3]): 0.33 | iC3b Screen Ref Fold (fold vs CFI-HSA wild type) [4]: 1.16

Molecule: CFI-HSA variant Y408N (enzyme)
C4c EC50 (nM) (human C4b (human) [1]): 710 nM | iC3b EC50 [2]: 64.2 nM | C4b Screen Ref Fold (fold vs CFI-HSA wild type) (human C4b (human) [3]): 0.09 | iC3b Screen Ref Fold (fold vs CFI-HSA wild type) [4]: 0.51

Molecule: CFI-HSA variant E457I (enzyme)
C4c EC50 (nM) (human C4b (human) [1]): 256 nM | iC3b EC50 [2]: 20.5 nM | C4b Screen Ref Fold (fold vs CFI-HSA wild type) (human C4b (human) [3]): 1.75 | iC3b Screen Ref Fold (fold vs CFI-HSA wild type) [4]: 0.99

Molecule: CFI-HSA variant Q467K (enzyme)
C4c EC50 (nM) (human C4b (human) [1]): 246 nM | iC3b EC50 [2]: 18.7 nM | C4b Screen Ref Fold (fold vs CFI-HSA wild type) (human C4b (human) [3]): 3.04 | iC3b Screen Ref Fold (fold vs CFI-HSA wild type) [4]: 0.95

Molecule: CFI-HSA variant K504R (enzyme)
C4c EC50 (nM) (human C4b (human) [1]): 439 nM | iC3b EC50 [2]: 33.7 nM | C4b Screen Ref Fold (fold vs CFI-HSA wild type) (human C4b (human) [3]): 0.51 | iC3b Screen Ref Fold (fold vs CFI-HSA wild type) [4]: 0.89

Molecule: CFI-HSA variant E530F (enzyme)
C4c EC50 (nM) (human C4b (human) [1]): > 1000 nM | iC3b EC50 [2]: 21.8 nM | C4b Screen Ref Fold (fold vs CFI-HSA wild type) (human C4b (human) [3]): 0.08 | iC3b Screen Ref Fold (fold vs CFI-HSA wild type) [4]: 0.98

Molecule: CFI-HSA variant E530G; N531G (enzyme)
C4c EC50 (nM) (human C4b (human) [1]): > 1000 nM | iC3b EC50 [2]: 31.3 nM | C4b Screen Ref Fold (fold vs CFI-HSA wild type) (human C4b (human) [3]): 0.04 | iC3b Screen Ref Fold (fold vs CFI-HSA wild type) [4]: 0.54

Molecule: CFI-HSA variant K534Q (enzyme)
C4c EC50 (nM) (human C4b (human) [1]): 595 nM | iC3b EC50 [2]: 21.7 nM | C4b Screen Ref Fold (fold vs CFI-HSA wild type) (human C4b (human) [3]): 1.76 | iC3b Screen Ref Fold (fold vs CFI-HSA wild type) [4]: 1.53

B1: WT mouse CFI (enzyme)
chain: RSPSASDLPQEELVDQKCLLQKYTHRSCNKVFCQPWQRCIEGTCICKLPYQCPRAGTPVCAMNGRSYPTYCHQKSFECLHPEIKFSHNGTCAAEGKFNVSLIYGRTKTEGLVQVKLVDQDERMFICKNSWSMAEANVACVDLGFPLGVRDIQGSFNISGNLHINDTECLHVHCRGVETSLAECAFTKRRTELSNGLAGVVCYKQDADFPTSLSFQCVNGKHIPQEKACNGVNDCGDQSDELCCKGCRGNASLCKSGVCIPDQYKCNGEVDCITGEDESRCEEDRQQNIPKGLARSAQGEAEIETEETEMLTPGMDNERKRIKSLLPKLSCGVKRNTHTRRKRVIGGKPANVGDYPWQVAIKDGQRITCGGIYIGGCWILTAAHCVRPSRAHSYQVWTALLDWLKPNSQLGIQTVKRVIVHEKYNGATFQNDIALIEMKMHTGKKECELPNSVPACVPWSPYLFQPNDRCIISGWGRGKDNQKVYSLRWGEVDLIGNCSQFYPDRYYEKEMQCAGTRDGSIDACKGDSGGPLVCEDINNVTYVWGIVSWGENCGKPEFPGVYTRVANYFDWISYHVGRSLVSQHNV
C4c EC50 (nM) (human C4b (human) [1]): 54 nM | iC3b EC50 [2]: > 500 nM | C4b Screen Ref Fold (fold vs CFI-HSA wild type) (human C4b (human) [3]): 6.24 | iC3b Screen Ref Fold (fold vs CFI-HSA wild type) [4]: 0.04

Continued, values first:

C4c EC50 (human C4b (human) [1]): 17.5 nM | iC3b EC50 [2]: 6.7 nM | C4b Screen Ref Fold (fold of CFI-HSA wild type) (human C4b (human) [3]): 5.87 | iC3b Screen Ref Fold (fold of CFI-HSA wild type) [4]: 0.92
Molecule: CFI-HSA variant E457G; N531G; P558S (enzyme)

C4c EC50 (human C4b (human) [1]): > 1000 nM | iC3b EC50 [2]: 20.8 nM | C4b Screen Ref Fold (fold of CFI-HSA wild type) (human C4b (human) [3]): 0.41 | iC3b Screen Ref Fold (fold of CFI-HSA wild type) [4]: 1.21
Molecule: CFI-HSA variant Y408L; E416A (enzyme)

C4c EC50 (human C4b (human) [1]): > 1000 nM | iC3b EC50 [2]: 76 nM | C4b Screen Ref Fold (fold of CFI-HSA wild type) (human C4b (human) [3]): 1.06 | iC3b Screen Ref Fold (fold of CFI-HSA wild type) [4]: 0.15
Molecule: CFI-HSA variant G556A (enzyme)

C4c EC50 (nM) (human C4b (human) [1]): 7.5 nM | iC3b EC50 [2]: 5.2 nM | C4b Screen Ref Fold (fold of CFI-HSA wild type) (human C4b (human) [3]): 4.38 | iC3b Screen Ref Fold (fold of CFI-HSA wild type) [4]: 2.21
Molecule: CFI-HSA variant E457G; N531G; E461Q; R462K; F464Y; E416A (enzyme)

C4c EC50 (nM) (human C4b (human) [1]): 59.3 nM | iC3b EC50 [2]: 3.1 nM | C4b Screen Ref Fold (fold of CFI-HSA wild type) (human C4b (human) [3]): 4.35 | iC3b Screen Ref Fold (fold of CFI-HSA wild type) [4]: 2.48
Molecule: CFI-HSA variant E457G; D425R; E416A (enzyme)

C4c EC50 (nM) (human C4b (human) [1]): 113 nM | iC3b EC50 [2]: 16.9 nM | C4b Screen Ref Fold (fold vs CFI-HSA wild type) (human C4b (human) [3]): 4.68 | iC3b Screen Ref Fold (fold vs CFI-HSA wild type) [4]: 1.43
Molecule: CFI-HSA variant E457A (enzyme)
